Experimental findings from publication PMC10261013, “Characterization of p38α autophosphorylation inhibitors that target the non-canonical activation pathway” (Nature Communications, 2023) are described below.

Ends that are not written are not given here. * marks the point of attachment. FITC = O=C1OC2(c3ccc(O)cc3Oc3cc(O)ccc32)c2ccc(NC(=S)*)cc21

Assay [1] has as its target T1, GST-p38α (human p38α with an N-terminal GST-tag, non-phosphorylated) (human, UniProt Q16539 1-360).
T1 construct: p38α (MAPK14), human; non-phosphorylated; The results text says 'p38α'; the methods and the legend say GST-p38α; also called MAPK14; non-phosphorylated p38α; source: E. coli BL21 DE3 or BL21-DE3-pLysS, purified (Glutathione-Sepharose, dialysis); not shown: GST, N-terminal, kept
Put plainly: thermal shift assay; GST-p38α 1.5 μM with TAB1(386-414) peptide 15 μM, alone or with NC-37 / NC-38; 20 mM TRIS pH 7.5, 100 mM NaCl, 2 mM MgCl2, 2 mM DTT; SYPRO Orange, 25 to 95 °C. To be noted: both partners purified.

In assay [2] the target is T1, GST-p38α (human p38α with an N-terminal …). Put plainly: fluorescence polarisation; direct binding: FITC-TAB1(386-414) 10 nM with non-phosphorylated GST-p38α 0.17–22 μM, 1 h at RT; 20 mM Tris pH 7.5, 100 mM NaCl, 1 mM DTT, 10 mM MgCl2. To be noted: both partners purified.

T1 sequence (Q16539 whole entry): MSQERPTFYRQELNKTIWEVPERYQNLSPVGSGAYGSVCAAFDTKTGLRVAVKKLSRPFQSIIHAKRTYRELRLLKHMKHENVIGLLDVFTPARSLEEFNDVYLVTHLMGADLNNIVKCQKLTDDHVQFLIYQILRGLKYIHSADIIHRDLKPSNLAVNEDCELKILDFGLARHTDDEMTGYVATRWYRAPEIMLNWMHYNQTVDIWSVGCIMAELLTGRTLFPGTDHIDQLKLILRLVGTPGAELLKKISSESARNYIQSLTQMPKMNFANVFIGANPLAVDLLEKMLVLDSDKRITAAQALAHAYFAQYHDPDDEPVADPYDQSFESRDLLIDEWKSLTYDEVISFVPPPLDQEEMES

B1: TAB1(386-414) peptide (peptide)
peptide: RVYPVSVPYSSAQSTSKTSVTLSLVMPSQ
notes: also called TAB1 peptide; source: synthetic peptide, bought: GenScript
Turning to B1, in assay [1], the binding result is given as “binds”.

B2: FITC-TAB1(386-414) peptide (peptide)
peptide: {FITC}-RVYPVSVPYSSAQSTSKTSVTLSLVMPSQ
notes: source: synthetic peptide, bought: ChinaPeptides
Take B2: the affinity in assay [2], expressed as Kd, was 989 ± 160 nM.
